Results from article PMC4511217 (Genes & Development, 2015).

T1: Rpf2, full-length, N-terminal 6xHis-tagged (Saccharomyces cerevisiae) (Saccharomyces cerevisiae, UniProt P36160 1-344)
T1 sequence: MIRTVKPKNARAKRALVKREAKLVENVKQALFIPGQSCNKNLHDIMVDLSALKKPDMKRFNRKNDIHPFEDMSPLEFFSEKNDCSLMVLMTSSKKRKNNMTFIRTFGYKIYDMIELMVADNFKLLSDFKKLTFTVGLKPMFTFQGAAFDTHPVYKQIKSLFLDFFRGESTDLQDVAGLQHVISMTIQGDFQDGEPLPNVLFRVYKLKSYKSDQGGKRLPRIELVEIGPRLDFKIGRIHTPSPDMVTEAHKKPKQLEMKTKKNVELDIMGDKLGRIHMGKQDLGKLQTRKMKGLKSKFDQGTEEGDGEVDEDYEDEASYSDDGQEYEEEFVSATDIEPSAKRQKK

T2: Rsa4 ribosome assembly factor within Alb1-TAP purified pre-60S particles (yeast (endogenous in pre-60S particles), UniProt P25382 1-515)
T2 sequence: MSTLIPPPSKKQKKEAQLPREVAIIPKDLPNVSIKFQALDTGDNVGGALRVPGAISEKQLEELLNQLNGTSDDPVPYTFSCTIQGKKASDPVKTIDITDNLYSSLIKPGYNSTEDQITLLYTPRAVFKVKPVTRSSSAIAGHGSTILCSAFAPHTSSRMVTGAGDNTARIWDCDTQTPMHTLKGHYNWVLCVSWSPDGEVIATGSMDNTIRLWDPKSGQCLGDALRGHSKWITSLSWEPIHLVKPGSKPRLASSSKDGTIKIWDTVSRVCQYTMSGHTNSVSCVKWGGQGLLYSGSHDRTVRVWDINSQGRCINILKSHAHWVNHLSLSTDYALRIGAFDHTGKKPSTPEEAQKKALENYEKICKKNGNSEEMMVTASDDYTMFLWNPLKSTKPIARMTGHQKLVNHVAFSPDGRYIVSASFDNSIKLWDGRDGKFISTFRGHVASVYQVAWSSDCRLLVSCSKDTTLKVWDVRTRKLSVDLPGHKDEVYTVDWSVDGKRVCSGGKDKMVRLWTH

B1: Rrs1, full-length (Saccharomyces cerevisiae) (natural protein)
chain: MSAEDYKNLPVTVEKPIPVVYDLGNLAAFDSNVLDKNDLDSSNARREEKIKSLTRDNVQLLINQLLSLPMKTTTESVGGTGGQSSVMTLLQLPDPTTDLPREKPLPKAKAMTKWEKFAAKKGIKPKERAGKMIYDEASGEWVPKWGYKGANKKLDDQWLVEVDDKVKGTDNELIDPRTLNRAERKRLVKKNEKQQRRNMKNAL
B2: Rrs1 within Alb1-TAP purified pre-60S particles (natural protein)
chain: B1 chain
B3: Rpf2 within Alb1-TAP purified pre-60S particles (natural protein)
chain: T1 sequence
B4: Rpl5 (uL18) within Alb1-TAP purified pre-60S particles (natural protein)
chain: MAFQKDAKSSAYSSRFQTPFRRRREGKTDYYQRKRLVTQHKAKYNTPKYRLVVRFTNKDIICQIISSTITGDVVLAAAYSHELPRYGITHGLTNWAAAYATGLLIARRTLQKLGLDETYKGVEEVEGEYELTEAVEDGPRPFKVFLDIGLQRTTTGARVFGALKGASDGGLYVPHSENRFPGWDFETEEIDPELLRSYIFGGHVSQYMEELADDDEERFSELFKGYLADDIDADSLEDIYTSAHEAIRADPAFKPTEKKFTKEQYAAESKKYRQTKLSKEERAARVAAKIAALAGQQ

Key:
[1] = target: T1, Rpf2, full-length, N-terminal …; assay: SEC + other: SAXS
[2] = target: T2, Rsa4 ribosome assembly factor within …; assay: cryo-EM structure
[3] = target: B4; assay: cryo-EM structure
[4] = target: B3; assay: cryo-EM structure

Binder: B1
stoichiometry N [1]: 1

Binder: B2
binding result [2]: binds | binding result [3]: binds

Binder: B3
binding result [2]: binds

Binder: B4
binding result [4]: binds
